From FireProtDB (doi:10.1021/bi00128a004) come the findings set out here.

“And” between values parts separate entries of the source, which are not always exact repeats. Identical values can stand only once.

B1: Tissue-type plasminogen activator, P00750 (parent)
chain: MDAMKRGLCCVLLLCGAVFVSPSQEIHARFRRGARSYQVICRDEKTQMIYQQHQSWLRPVLRSNRVEYCWCNSGRAQCHSVPVKSCSEPRCFNGGTCQQALYFSDFVCQCPEGFAGKCCEIDTRATCYEDQGISYRGTWSTAESGAECTNWNSSALAQKPYSGRRPDAIRLGLGNHNYCRNPDRDSKPWCYVFKAGKYSSEFCSTPACSEGNSDCYFGNGSAYRGTHSLTESGASCLPWNSMILIGKVYTAQNPSAQALGLGKHNYCRNPDGDAKPWCHVLKNRRLTWEYCDVPSCSTCGLRQYSQPQFRIKGGLFADIASHPWQAAIFAKHRRSPGERFLCGGILISSCWILSAAHCFQERFPPHHLTVILGRTYRVVPGEEEQKFEVEKYIVHKEFDDDTYDNDIALLQLKSDSSRCAQESSVVRTVCLPPADLQLPDWTECELSGYGKHEALSPFYSERLKEAHVRLYPSSRCTSQHLLNRTVTDNMLCAGDTRSGGPQANLHDACQGDSGGPLVCLNDGRMTLVGIISWGLGCGQKDVPGVYTKVTNYLDWIRDNMRP

The variants in the data set derive from B1. The following applies: Homo sapiens; pH 8; Thermal; DSC; Tris - Oac/100mM NaOAc 50 mM; structure 1PML; whole UniProt chain shown.
Take W288L: the Tm was 71.7 °C and 73.9 °C; the “change of melting temperature, mutant - wild type (higher = more stable)” value (“change of melting temperature, mutant” for short) is -3.7 °C.
Turning to W288Y, the Tm is 81.6 °C.
Consider W288F, for which the “change of melting temperature, mutant” value is -1.7 °C.
Regarding W288S, the Tm was 73.7 °C and 76.5 °C; the “change of melting temperature, mutant” value was -3.5 °C.
